Values of other authors in patent US12258594B2, “Cas proteins with reduced immunogenicity and methods of screening thereof” (THE BROAD INSTITUTE, INC., priority 2018, dated 2025).
Positions count from the first letter of the chain named. In names and notes the source's numbering stands.

B1: Asn997: LbuCas13a with Asn997 substituted with alanine (protein, UniProt C7NBY4 1-1159, looked up, variant N997A)
CRISPR-associated …: MKVTKVGGISHKKYTSEGRLVKSESEENRTDERLSALLNMRLDMYIKNPSSTETKENQKRIGKLKKFFSNKMVYLKDNTLSLKNGKKENIDREYSETDILESDVRDKKNFAVLKKIYLNENVNSEELEVFRNDIKKKLNKINSLKYSFEKNKANYQKINENNIEKVEGKSKRNIIYDYYRESAKRDAYVSNVKEAFDKLYKEEDIAKLVLEIENLTKLEKYKIREFYHEIIGRKNDKENFAKIIYEEIQNVNNMKELIEKVPDMSELKKSQVFYKYYLDKEELNDKNIKYAFCHFVEIEMSQLLKNYVYKRLSNISNDKIKRIFEYQNLKKLIENKLLNKLDTYVRNCGKYNYYLQDGEIATSDFIARNRQNEAFLRNIIGVSSVAYFSLRNILETENENDITGRMRGKTVKNNKGEEKYVSGEVDKIYNENKKNEVKENLKMFYSYDFNMDNKNEIEDFFANIDEAISSIRHGIVHFNLELEGKDIFAFKNIAPSEISKKMFQNEINEKKLKLKIFRQLNSANVFRYLEKYKILNYLKRTRFEFVNKNIPFVPSFTKLYSRIDDLKNSLGIYWKTPKTNDDNKTKEIIDAQIYLLKNIYYGEFLNYFMSNNGNFFEISKEIIELNKNDKRNLKTGFYKLQKFEDIQEKIPKEYLANIQSLYMINAGNQDEEEKDTYIDFIQKIFLKGFMTYLANNGRLSLIYIGSDEETNTSLAEKKQEFDKFLKKYEQNNNIKIPYEINEFLREIKLGNILKYTERLNMFYLILKLLNHKELTNLKGSLEKYQSANKEEAFSDQLELINLLNLDNNRVTEDFELEADEIGKFLDFNGNKVKDNKELKKFDTNKIYFDGENIIKHRAFYNIKKYGMLNLLEKIADKAGYKISIEELKKYSNKKNEIEKNHKMQENLHRKYARPRKDEKFTDEDYESYKQAIENIEEYTHLKNKVEFNELNLLQGLLLRILHRLVGYTSIWERDLRFRLKGEFPENQYIEEIFNFEAKKNVKYKGGQIVEKYIKFYKELHQNDEVKINKYSSANIKVLKQEKKDLYIRNYIAHFNYIPHAEISLLEVLENLRKLLSYDRKLKNAVMKSVVDILKEYGFVATFKIGADKKIGIQTLESEKIVHLKNLKKKKLMTDRNSEELCKLVKIMFEYKMEEKKSEN
B2: Phe995: LbuCas13a with Phe995 substituted with alanine (protein, UniProt C7NBY4 1-1159, looked up, variant F995A)
CRISPR-associated …: B1 CRISPR-associated … with F995A, A997N
B3: His473: LbuCas13a with His473 substituted with alanine (protein, UniProt C7NBY4 1-1159, looked up, variant H473A)
CRISPR-associated …: B1 CRISPR-associated … with H473A, A997N
B4: Lys998: LbuCas13a with Lys998 substituted with alanine (protein, UniProt C7NBY4 1-1159, looked up, variant K998A)
CRISPR-associated …: B1 CRISPR-associated … with A997N, K998A
B5: Lys558: LbuCas13a with alanine substituted for Lys558 (protein, UniProt C7NBY4 1-1159, looked up, variant K558A)
CRISPR-associated …: B1 CRISPR-associated … with K558A, A997N
B6: Lys942Ala: Lys942Ala mutant of LbuCas13a (protein, UniProt C7NBY4 1-1159, looked up, variant K942A)
CRISPR-associated …: B1 CRISPR-associated … with K942A, A997N
B7: Arg1135Ala: Arg1135Ala mutant of LbuCas13a (protein, UniProt C7NBY4 1-1159, looked up, variant R1135A)
CRISPR-associated …: B1 CRISPR-associated … with A997N, R1135A
B8: Arg809Ala: Arg809Ala mutant of LbuCas13a (protein, UniProt C7NBY4 1-1159, looked up, variant R809A)
CRISPR-associated …: B1 CRISPR-associated … with R809A, A997N
B9: Gln519Ala: Gln519Ala mutant of LbuCas13a (protein, UniProt C7NBY4 1-1159, looked up, variant Q519A)
CRISPR-associated …: B1 CRISPR-associated … with Q519A, A997N
B10: Lys718Ala: Lys718Ala mutant of LbuCas13a (protein, UniProt C7NBY4 1-1159, looked up, variant K718A)
CRISPR-associated …: B1 CRISPR-associated … with K718A, A997N
B11: Lys845Ala: Lys845Ala mutant of LbuCas13a (protein, UniProt C7NBY4 1-1159, looked up, variant K845A)
CRISPR-associated …: B1 CRISPR-associated … with K845A, A997N
B12: Tyr938Ala: Tyr938Ala mutant of LbuCas13a (protein, UniProt C7NBY4 1-1159, looked up, variant Y938A)
CRISPR-associated …: B1 CRISPR-associated … with Y938A, A997N
B13: Tyr601Ala: Tyr601Ala mutant of LbuCas13a (protein, UniProt C7NBY4 1-1159, looked up, variant Y601A)
CRISPR-associated …: B1 CRISPR-associated … with Y601A, A997N
B14: SaCas9 T787A: T787A mutant of SaCas9 (protein, UniProt J7RUA5 1-1053, looked up, variant T787A)
CRISPR-associated …: MKRNYILGLDIGITSVGYGIIDYETRDVIDAGVRLFKEANVENNEGRRSKRGARRLKRRRRHRIQRVKKLLFDYNLLTDHSELSGINPYEARVKGLSQKLSEEEFSAALLHLAKRRGVHNVNEVEEDTGNELSTKEQISRNSKALEEKYVAELQLERLKKDGEVRGSINRFKTSDYVKEAKQLLKVQKAYHQLDQSFIDTYIDLLETRRTYYEGPGEGSPFGWKDIKEWYEMLMGHCTYFPEELRSVKYAYNADLYNALNDLNNLVITRDENEKLEYYEKFQIIENVFKQKKKPTLKQIAKEILVNEEDIKGYRVTSTGKPEFTNLKVYHDIKDITARKEIIENAELLDQIAKILTIYQSSEDIQEELTNLNSELTQEEIEQISNLKGYTGTHNLSLKAINLILDELWHTNDNQIAIFNRLKLVPKKVDLSQQKEIPTTLVDDFILSPVVKRSFIQSIKVINAIIKKYGLPNDIIIELAREKNSKDAQKMINEMQKRNRQTNERIEEIIRTTGKENAKYLIEKIKLHDMQEGKCLYSLEAIPLEDLLNNPFNYEVDHIIPRSVSFDNSFNNKVLVKQEENSKKGNRTPFQYLSSSDSKISYETFKKHILNLAKGKGRISKTKKEYLLEERDINRFSVQKDFINRNLVDTRYATRGLMNLLRSYFRVNNLDVKVKSINGGFTSFLRRKWKFKKERNKGYKHHAEDALIIANADFIFKEWKKLDKAKKVMENQMFEEKQAESMPEIETEQEYKEIFITPHQIKHIKDFKDYKYSHRVDKKPNRELINDALYSTRKDDKGNTLIVNNLNGLYDKDNDKLKKLINKSPEKLLMYHHDPQTYQKLKLIMEQYGDEKNPLYKYYEETGNYLTKYSKKDNGPVIKKIKYYGNKLNAHLDITDDYPNSRNKVVKLSLKPYRFDVYLDNGVYKFVTVKNLDVIKKENYYEVNSKCYEEAKKLKKISNQAEFIASFYNNDLIKINGELYRVIGVNNDLLNRIEVNMIDITYREYLENMNDKRPPRIIKTIASKTQSIKKYSTDILGNLYEVKSKKHPQIIKKG
B15: N580A: N580A mutant of SaCas9 (protein, UniProt J7RUA5 1-1053, looked up, variant N580A)
CRISPR-associated …: B14 CRISPR-associated … with N580A, A787T
B16: D704A: D704A mutant of SaCas9 (protein, UniProt J7RUA5 1-1053, looked up, variant D704A)
CRISPR-associated …: B14 CRISPR-associated … with D704A, A787T
B17: H557A: H557A mutant of SaCas9 (protein, UniProt J7RUA5 1-1053, looked up, variant H557A)
CRISPR-associated …: B14 CRISPR-associated … with H557A, A787T
B18: E477A: E477A mutant of SaCas9 (protein, UniProt J7RUA5 1-1053, looked up, variant E477A)
CRISPR-associated …: B14 CRISPR-associated … with E477A, A787T
B19: D10A: D10A mutant of SaCas9 (protein, UniProt J7RUA5 1-1053, looked up, variant D10A)
CRISPR-associated …: B14 CRISPR-associated … with D10A, A787T

tested on: target RNA; settings: LbuCas13a HEPN mutants

Row | Molecule | cleavage of target and non-target ssRNA substrate
1 | B1 | significantly reduced the cleavage of both target and non-target ssRNA substrate
2 | B2 | significantly reduced the cleavage of both target and non-target ssRNA substrate
3 | B3 | significantly reduced the cleavage of both target and non-target ssRNA substrate
4 | B4 | significantly reduced the cleavage of both target and non-target ssRNA substrate

same assay, conditions: LbuCas13a alanine mutants

Row | Molecule | crRNA-guided target RNA cleavage activity
5 | B5 | dramatically reduced crRNA-guided RNA cleavage
6 | B6 | reduced target RNA cleavage activity
7 | B7 | reduced cleavage activities
8 | B8 | reduced target RNA cleavage activity
9 | B9 | reduced cleavage activities
10 | B10 | reduced target RNA cleavage activity
11 | B11 | reduced target RNA cleavage activity
12 | B12 | reduced target RNA cleavage activity
13 | B13 | reduced target RNA cleavage activity

tested on: target DNA; settings: SaCas9 mutants

Row | Molecule | DNA cleavage activity
14 | B14 | reduced DNA cleavage activity
15 | B15 | almost completely lacked DNA cleavage activity
16 | B16 | almost no DNA cleavage activity
17 | B17 | almost completely lacked DNA cleavage activity
18 | B18 | almost no DNA cleavage activity
19 | B19 | almost no DNA cleavage activity
